# From the DeepSol protein solubility set
# Experiment: soluble on expression in E. coli; label from the status in PepcDB or PDB records
row,Sequence,soluble on expression in E. coli
1,MSLAEGGFVDDAKASFNLRNFYINRNFVDPANPQGKAEEWTQSFILDARSGFTQGTIGFGVDMLGLYSLKLDGGKGTAGTHLLPVHDDGRPADDFGRLGVALKARLSQTELKVGEWMPVLPILRSDDGRSLPQTFRGGQLTSRELDGLTLYAGQFRGNSPRNDASMEDMFMQGRTGITSDRFNFAGGEYTFNDKRTMLGLWNAQLKDIYRQQYVNLVHSQPLGEWTLGANLGYFLGKEDGSARAGDLDNRTASAMLSARYKGHTFYIGLQKVSGDDAWMRVNGTSGGTLANDSYNASFDNAKERSWQLRHDFNFVTVGLPGLTLMNRYIKGDNVHTSAVDDGKEWARETELAYVVQSGVFKDLSVKWRNSTMRRDFSSNAFDENRVIVSYPLNLLEGHHHHHH,soluble
2,MSLSPIAPYEIGYVHIDSCELCHADGKLVMFLAIDRVSKFTYVDFHDCAGKMEGAAFLRNVVEAFPYQIHIVLTDNGMAFADLPKNRNGPSRRFFGPHIFDRVCIEHGIEHRLTKPYHPWTNGQAERMNRTIKDATIKAYHYDDLESLKAHVLAFVTAYNFAKHLKALRWRTPYQAICDARTKDPSIFKIDPHHLTQGPHTLSEGHHHHHH,not soluble
3,MGSDKIHHHHHHMKKSKHISQSELESYLWGAATLLRGYIDAGDYKQFIFPLLFYKRLCDVYDEELADALEESGGDQEYAALPEQHRFQIPEDAHWKATRTKVKNVGKAIQDALRAIETANPDTLYGVFGDAQWTNKDRLPDRMLRELIEHFSSQTLSLSNCPEDELGVGYEFLIKKFADDSGHTAAEFYTNRTVVHLMTEMLEPKPGESIYDPTCGSAGMLLSAVAHLKRQNKEWRNLRLFGQERNLLTSAIGRMNLFLHGIEDFRIVRGDTLANPAFVEGDRLMQFDVVLANPPYSIKQWDRDAWSADPWGRNIYGTPPQGRADYAFWQHIIKSMKAKSGRCAILFPHGVLFRNEESAMREKLVAHDVVECVLGLGPNLFYNSPMEACVVICRMNKPKERRNKVLFINAVNEVTRERAQSFLTDDHIQRIVAAYQAFGDEDGFARVVGNDEIREKASNLSIPLYVRAENGNGNGNGSTETVSLKQAIANWQESSMALRESMDGLLSSLEGGLHGS,not soluble
4,AHHHHHHGSSLGGSADDTYLHEIIKKAYEAGIVIVAAAGNEGASSPSYPAAYPEVIAVGATDINDQVPYWSNRQPEVSAPGVDILSTYPDDTYETLSGTSMATPHVSGVVALIQAAYYLKYGKVLPVGTFDDMSTNTVRGILHLAVDDLGDPGWDIYYGYGIIRADKAIQLALF,not soluble
5,MRWAIVRFPGANCDEDARFALEKAGIRAEFVWHTERDLRGFDGVFLPGGFSYGDYLRAGALAAKSPVMEAVRRFAEEGRYVVGVCNGFQILTEAGLLPGALLANLNLHFTCKEVGVRVERNDLPFTRLYPRGQVLRLPIAHGEGRYYADPETLARLEGEGLVVFRYAPLKDEADYNPNGSLHDIAGIVSEKGNVLGMMPHPERAVDEVLGNTDGLPFFLGLVKEVAR,soluble
6,MRCMTLPAYDIAILGAGPVGRVLALLLARLTPQPQRIALLQGGAGLPPTPAGTLGPAADPRVLALNHGSRVLLESLRAWPAHAAEIRHIHVSQRGRLGRTVIDREDFDVPQLGNVVAYAALHAQLEQAVQDCGVTVLSGPPARVDGQDGEGLTVRQGDAALHCRLAVQCDGAGGSDVRRDYAQHAVLTSAHATLPRSGWAWERFTNEGPLAMLPHPQTPEAYSVVWCCAPPRAQRLAGLDDEAFSRELTEAFGTRLGRLRSAAPRHVFPLELKARHAQAHGRLATIGNAAQTLHPVAGQGLNLGLRDAAQLAHALPDWLAAPQADPSPLLAAFARARLADRWVTAGLTDLMPRIFATGLAPVEHACGLALLGLDIAAPLRAPLARHLLQGLRV,not soluble
7,MGEPFGGPLMGRLVSLLPSATDLIFELGLGEQLLGVSHCCDHPGAASLPVLTRSIIGSDLPQAEIDRAVSEAVRAGRALYTVDGPLLDRLRPDLVVTQGVCEVCAVTPGTVAEAVRFLPGCLPAEQVLSLEGKTFAGILADLRALARAAGVRERGEALAAESERRWNAIRPVGVQVPEPPRVLTLEWVDPPFYGGHWVPEQVAQAGGKDVLGHAGRDSGRTSWEDVVQLDPDVIVVMCCGYGLSDNAEFARQVLSHPELRAVRAGQVWGVDANAHFSRPSLGVVRGAEVLAALLRGEESAGESVRVRAELEHHHHHH,not soluble
